Data: the RNAGym collection of RNA variant scans (doi:10.7554/elife.80360)

B1: CPEB3 Ribozyme (parent)
chain: GGGGGCCACAGCAGAAGCGUUCACGUCGCGGCCCCUGUCAGAUUCUGGUGAAUCUGCGAAUUCUGCUGU

Variants of: B1
Test: self-cleavage, relative activity (ratio to wild type); higher = more cleavage; co-transcriptional
Variant GGGGGCCACAGCAGUAGCGUUCACGCCGCGGCCCCUGUCAGAUUCUGGUGAAUCUGCGAAUUCUGCUGU [A15U U26C] has a self-cleavage of 0.634. With GGGGGCCACAGCAGUAGCGUUCACGGCGCGGCCCCUGUCAGAUUCUGGUGAAUCUGCGAAUUCUGCUGU [A15U U26G] the self-cleavage was 0.424. In the case of GGGGGCCACAGCAGUAGCGUUCACGACGCGGCCCCUGUCAGAUUCUGGUGAAUCUGCGAAUUCUGCUGU [A15U U26A], the self-cleavage is reported as 0.34. GGGGGCCACAGCAGUAGCGUUCACUUCGCGGCCCCUGUCAGAUUCUGGUGAAUCUGCGAAUUCUGCUGU [A15U G25U] showed a self-cleavage of 0.148. Variant GGGGGCCACAGCAGUAGCUUUCACGUCGCGGCCCCUGUCAGAUUCUGGUGAAUCUGCGAAUUCUGCUGU [A15U G19U] has a self-cleavage of 0.127. For GGGGGCCACAGCAGACGCGUUCACGUCGCGGCCCCUGUCAGAUUCUGGUGAAUCUGCGAGUUCUGCUGU [A16C A60G], the self-cleavage was 0.418. In the case of GGGGGCCACAGCAGUAGCGUUCACGUCGCGGCCCCUGUCAGAUUCUGGUUAAUCUGCGAAUUCUGCUGU [A15U G50U], the self-cleavage is reported as 0.858. In the case of GGGGGCCACAGCAGUAGCGUUCACGUCGCGGCCCCUGUCAGAUUCUGGUCAAUCUGCGAAUUCUGCUGU [A15U G50C], the self-cleavage is reported as 0.795. GGGGGCCACAGCAGUAGCGAUCACGUCGCGGCCCCUGUCAGAUUCUGGUGAAUCUGCGAAUUCUGCUGU [A15U U20A] gave a self-cleavage of 0.106. Variant GGGGGCCACAGCAGUAGCGCUCACGUCGCGGCCCCUGUCAGAUUCUGGUGAAUCUGCGAAUUCUGCUGU [A15U U20C] has a self-cleavage of 0.211. Variant GGGGGCCACAGCAGUAGCGGUCACGUCGCGGCCCCUGUCAGAUUCUGGUGAAUCUGCGAAUUCUGCUGU [A15U U20G] has a self-cleavage of 0.132. Work on GGGGGCCACAGCAGACGCGUUCACGUCGCGGCCCCUGUCAGAUUCUGGUGAUUCUGCGAAUUCUGCUGU [A16C A52U] yielded a self-cleavage of 0.249. Variant GGGGGCCACAGCAGACGCGUUCACGUCGCGGCCCCUGUCAGAUUCUGGUGACUCUGCGAAUUCUGCUGU [A16C A52C] has a self-cleavage of 0.239. GGGGGCCACAGCAGACGCGUUCACGUCGCGGCCCCUGUCCGAUUCUGGUGAAUCUGCGAAUUCUGCUGU [A16C A40C] showed a self-cleavage of 0.118. In the case of GGGGGCCACAGCAGACGCGUUCACGUCGCGGCCCCUGUCUGAUUCUGGUGAAUCUGCGAAUUCUGCUGU [A16C A40U], the self-cleavage is reported as 0.0836. Work on GGGGGCCACAGCAGACGCGUUCACGUCGCGGCCCCUGUCAGUUUCUGGUGAAUCUGCGAAUUCUGCUGU [A16C A42U] yielded a self-cleavage of 0.102. In the case of GGGGGCCACAGCAGACGCGUUCACGUCGCGGCCCCUGUCAGCUUCUGGUGAAUCUGCGAAUUCUGCUGU [A16C A42C], the self-cleavage is reported as 0.245. Variant GGGGGCCACAGCAGACGCGUUCUCGUCGCGGCCCCUGUCAGAUUCUGGUGAAUCUGCGAAUUCUGCUGU [A16C A23U] has a self-cleavage of 0.549. Variant GGGGGCCACAGCAGACGCGUUCGCGUCGCGGCCCCUGUCAGAUUCUGGUGAAUCUGCGAAUUCUGCUGU [A16C A23G] has a self-cleavage of 0.0786. For GGGGGCCACAGCAGACGCGUUCCCGUCGCGGCCCCUGUCAGAUUCUGGUGAAUCUGCGAAUUCUGCUGU [A16C A23C], the self-cleavage was 0.277. Work on GGGGGCCACAGCAGUAGCGUUCACGUCGCGUCCCCUGUCAGAUUCUGGUGAAUCUGCGAAUUCUGCUGU [A15U G31U] yielded a self-cleavage of 0.205. In the case of GGGGGCCACAGCAGUAGCGUUCACGUCGCGCCCCCUGUCAGAUUCUGGUGAAUCUGCGAAUUCUGCUGU [A15U G31C], the self-cleavage is reported as 0.183. GGGGGCCACAGCAGUAGCGUUCACGUCGCGACCCCUGUCAGAUUCUGGUGAAUCUGCGAAUUCUGCUGU [A15U G31A] showed a self-cleavage of 0.248. With GGGGGCCACAGCAGUAGCGUUCACGUCGCGGCCCCUGUCAGAUUCUGGUGAAUCUGCGAAUUCCGCUGU [A15U U64C] the self-cleavage was 0.654. For GGGGGCCACAGCAGUAGCGUUCACGUCGCGGCCCCUGUCAGAUUCUGGUGAAUCUGCGAAUUCAGCUGU [A15U U64A], the self-cleavage was 0.683. GGGGGCCACAGCAGUAGCGUUCACGUCGCGGCCCCUGUCAGAUUCUGGUGAAUCUGCGAAUUCGGCUGU [A15U U64G] showed a self-cleavage of 0.549. For GGGGGCCACAGCAGUAGCGUUCACGUCGCGGCCCCUGUCAGAUUCUGGUGAAUCUGCUAAUUCUGCUGU [A15U G58U], the self-cleavage was 0.963. With GGGGGCCACAGCAGUAGCGUUCACGUCGCGGCCCCUGUCAGAUUCUGGUGAAUCUGCAAAUUCUGCUGU [A15U G58A] the self-cleavage was 0.754. For GGGGGCCACAGCAGUAGCGUUCACGUCGCGGCCCCUGUCAGAUUCUGGUGAAUCUGCCAAUUCUGCUGU [A15U G58C], the self-cleavage was 0.821. Work on GGGGGCCACAGCAGUAGCGUUCACGUCGCGGCCCCUCUCAGAUUCUGGUGAAUCUGCGAAUUCUGCUGU [A15U G37C] yielded a self-cleavage of 0.179. Work on GGGGGCCACAGCAGUAGCGUUCACGUCGCGGCCCCUAUCAGAUUCUGGUGAAUCUGCGAAUUCUGCUGU [A15U G37A] yielded a self-cleavage of 0.219. Variant GGGGGCCACAGCAGUAGCGUUCACGUCGCGGCCCCUUUCAGAUUCUGGUGAAUCUGCGAAUUCUGCUGU [A15U G37U] has a self-cleavage of 0.176. In the case of GGGGGCCACAGCAGUAGCGUUCACGUCGCGGCCCCUGUCAGAUUCUGGUGAAUCUGCGAAUGCUGCUGU [A15U U62G], the self-cleavage is reported as 0.991. Work on GGGGGCCACAGCAGUAGCGUUCACGUCGCGGCCCCUGUCAGAUUCUGGUGAAUCUGCGAAUCCUGCUGU [A15U U62C] yielded a self-cleavage of 0.946. With GGGGGCCACAGCAGUAGCGUUCACGUCGCGGCCCCUGUCAGAUUCUGGUGAAGCUGCGAAUUCUGCUGU [A15U U53G] the self-cleavage was 0.566. Variant GGGGGCCACAGCAGUAGCGUUCACGUCGCGGCCCCUGUCAGAUUCUGGUGAAACUGCGAAUUCUGCUGU [A15U U53A] has a self-cleavage of 0.468. GGGGGCCACAGCAGUAGCGUUCACGUCGCGGCCCCUGUCAGAUUCUGGUGAACCUGCGAAUUCUGCUGU [A15U U53C] showed a self-cleavage of 0.413. GGGGGCCACAGCAGUAGCGUCCACGUCGCGGCCCCUGUCAGAUUCUGGUGAAUCUGCGAAUUCUGCUGU [A15U U21C] showed a self-cleavage of 0.592. For GGGGGCCACAGCAGUAGCGUGCACGUCGCGGCCCCUGUCAGAUUCUGGUGAAUCUGCGAAUUCUGCUGU [A15U U21G], the self-cleavage was 0.157.
